Test results from patent publication US20150368311A1 (Sanofi, published 2015).
Non-standard residues stand in square brackets, D forms with d. No end group written: not given here. Ala(4-thiazolyl) = N[C@@H](Cc1cscn1)C(=O)O; 1Nal = N[C@@H](Cc1cccc2ccccc12)C(=O)O; Phe(2-F) = N[C@@H](Cc1ccccc1F)C(=O)O; Chg = N[C@H](C(=O)O)C1CCCCC1; Nle = CCCC[C@H](N)C(=O)O

Key:
[1] = target: human glucagon receptor (human, UniProt P47871 26-477); assay: cell-based or functional assay
[2] = target: human GLP-1 receptor (human, UniProt P43220 24-463); assay: cell-based or functional assay

Chain of human glucagon receptor (P47871 26-477): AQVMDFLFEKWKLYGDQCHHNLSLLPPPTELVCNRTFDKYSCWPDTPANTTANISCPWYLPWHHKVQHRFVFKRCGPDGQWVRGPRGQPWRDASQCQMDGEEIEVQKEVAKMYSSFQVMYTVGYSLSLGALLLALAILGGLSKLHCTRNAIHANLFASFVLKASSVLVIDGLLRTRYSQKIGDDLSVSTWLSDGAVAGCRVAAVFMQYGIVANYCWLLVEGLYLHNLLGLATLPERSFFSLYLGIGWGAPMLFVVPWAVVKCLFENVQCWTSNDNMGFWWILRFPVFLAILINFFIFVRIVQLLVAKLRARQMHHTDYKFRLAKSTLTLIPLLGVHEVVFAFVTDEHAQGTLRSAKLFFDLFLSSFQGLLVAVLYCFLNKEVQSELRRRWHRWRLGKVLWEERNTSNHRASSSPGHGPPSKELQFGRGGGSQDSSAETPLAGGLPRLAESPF

| Binder | EC50 hGLUC R [pM], cAMP formation [1] | EC50 hGLP-1 R [pM], cAMP formation [2] |
| --- | --- | --- |
| [Ala(4-thiazolyl)]SQGTFTSD[Phe(2-F)]SKQ[Nle]ESRRAQDFIEWLLATGPESGAPPPS-OH (N-terminus assumed; SMILES CCCC[C@H](NC(=O)[C@H](CCC(N)=O)NC(=O)[C@H](CCCCN)NC(=O)[C@H](CO)NC(=O)[C@H](Cc1ccccc1F)NC(=O)[C@H](CC(=O)O)NC(=O)[C@H](CO)NC(=O)[C@@H](NC(=O)[C@H](Cc1ccccc1)NC(=O)[C@@H](NC(=O)CNC(=O)[C@H](CCC(N)=O)NC(=O)[C@H](CO)NC(=O)[C@@H](N)Cc1cscn1)[C@@H](C)O)[C@@H](C)O)C(=O)N[C@@H](CCC(=O)O)C(=O)N[C@@H](CO)C(=O)N[C@@H](CCCNC(=N)N)C(=O)N[C@@H](CCCNC(=N)N)C(=O)N[C@@H](C)C(=O)N[C@@H](CCC(N)=O)C(=O)N[C@@H](CC(=O)O)C(=O)N[C@@H](Cc1ccccc1)C(=O)N[C@H](C(=O)N[C@@H](CCC(=O)O)C(=O)N[C@@H](Cc1c[nH]c2ccccc12)C(=O)N[C@@H](CC(C)C)C(=O)N[C@@H](CC(C)C)C(=O)N[C@@H](C)C(=O)N[C@H](C(=O)NCC(=O)N1CCC[C@H]1C(=O)N[C@@H](CCC(=O)O)C(=O)N[C@@H](CO)C(=O)NCC(=O)N[C@@H](C)C(=O)N1CCC[C@H]1C(=O)N1CCC[C@H]1C(=O)N1CCC[C@H]1C(=O)N[C@@H](CO)C(=O)O)[C@@H](C)O)[C@@H](C)CC) [SEQ ID NO: 18] | 3.1 pM | 25800 pM |
| [Ala(4-thiazolyl)]SQGTFTSD[Phe(2-F)]SKQLESRRAQDFIEWLLATGPESGAPPPS-OH (N-terminus assumed; SMILES CC[C@H](C)[C@H](NC(=O)[C@H](Cc1ccccc1)NC(=O)[C@H](CC(=O)O)NC(=O)[C@H](CCC(N)=O)NC(=O)[C@H](C)NC(=O)[C@H](CCCNC(=N)N)NC(=O)[C@H](CCCNC(=N)N)NC(=O)[C@H](CO)NC(=O)[C@H](CCC(=O)O)NC(=O)[C@H](CC(C)C)NC(=O)[C@H](CCC(N)=O)NC(=O)[C@H](CCCCN)NC(=O)[C@H](CO)NC(=O)[C@H](Cc1ccccc1F)NC(=O)[C@H](CC(=O)O)NC(=O)[C@H](CO)NC(=O)[C@@H](NC(=O)[C@H](Cc1ccccc1)NC(=O)[C@@H](NC(=O)CNC(=O)[C@H](CCC(N)=O)NC(=O)[C@H](CO)NC(=O)[C@@H](N)Cc1cscn1)[C@@H](C)O)[C@@H](C)O)C(=O)N[C@@H](CCC(=O)O)C(=O)N[C@@H](Cc1c[nH]c2ccccc12)C(=O)N[C@@H](CC(C)C)C(=O)N[C@@H](CC(C)C)C(=O)N[C@@H](C)C(=O)N[C@H](C(=O)NCC(=O)N1CCC[C@H]1C(=O)N[C@@H](CCC(=O)O)C(=O)N[C@@H](CO)C(=O)NCC(=O)N[C@@H](C)C(=O)N1CCC[C@H]1C(=O)N1CCC[C@H]1C(=O)N1CCC[C@H]1C(=O)N[C@@H](CO)C(=O)O)[C@@H](C)O) [SEQ ID NO: 21] | 1.4 pM | 49700 pM |
| [Ala(4-thiazolyl)]SQGTFTSD[1Nal]SKQLESRRAQDFIEWLLATGPESGAPPPS-OH (N-terminus assumed; SMILES CC[C@H](C)[C@H](NC(=O)[C@H](Cc1ccccc1)NC(=O)[C@H](CC(=O)O)NC(=O)[C@H](CCC(N)=O)NC(=O)[C@H](C)NC(=O)[C@H](CCCNC(=N)N)NC(=O)[C@H](CCCNC(=N)N)NC(=O)[C@H](CO)NC(=O)[C@H](CCC(=O)O)NC(=O)[C@H](CC(C)C)NC(=O)[C@H](CCC(N)=O)NC(=O)[C@H](CCCCN)NC(=O)[C@H](CO)NC(=O)[C@H](Cc1cccc2ccccc12)NC(=O)[C@H](CC(=O)O)NC(=O)[C@H](CO)NC(=O)[C@@H](NC(=O)[C@H](Cc1ccccc1)NC(=O)[C@@H](NC(=O)CNC(=O)[C@H](CCC(N)=O)NC(=O)[C@H](CO)NC(=O)[C@@H](N)Cc1cscn1)[C@@H](C)O)[C@@H](C)O)C(=O)N[C@@H](CCC(=O)O)C(=O)N[C@@H](Cc1c[nH]c2ccccc12)C(=O)N[C@@H](CC(C)C)C(=O)N[C@@H](CC(C)C)C(=O)N[C@@H](C)C(=O)N[C@H](C(=O)NCC(=O)N1CCC[C@H]1C(=O)N[C@@H](CCC(=O)O)C(=O)N[C@@H](CO)C(=O)NCC(=O)N[C@@H](C)C(=O)N1CCC[C@H]1C(=O)N1CCC[C@H]1C(=O)N1CCC[C@H]1C(=O)N[C@@H](CO)C(=O)O)[C@@H](C)O) [SEQ ID NO: 22] | 1 pM | 8570 pM |
| [Ala(4-thiazolyl)]SQGTFTSD[Chg]SKQ[Nle]ESRRAQDFIEWLLATGPESGAPPPS-OH (N-terminus assumed; SMILES CCCC[C@H](NC(=O)[C@H](CCC(N)=O)NC(=O)[C@H](CCCCN)NC(=O)[C@H](CO)NC(=O)[C@@H](NC(=O)[C@H](CC(=O)O)NC(=O)[C@H](CO)NC(=O)[C@@H](NC(=O)[C@H](Cc1ccccc1)NC(=O)[C@@H](NC(=O)CNC(=O)[C@H](CCC(N)=O)NC(=O)[C@H](CO)NC(=O)[C@@H](N)Cc1cscn1)[C@@H](C)O)[C@@H](C)O)C1CCCCC1)C(=O)N[C@@H](CCC(=O)O)C(=O)N[C@@H](CO)C(=O)N[C@@H](CCCNC(=N)N)C(=O)N[C@@H](CCCNC(=N)N)C(=O)N[C@@H](C)C(=O)N[C@@H](CCC(N)=O)C(=O)N[C@@H](CC(=O)O)C(=O)N[C@@H](Cc1ccccc1)C(=O)N[C@H](C(=O)N[C@@H](CCC(=O)O)C(=O)N[C@@H](Cc1c[nH]c2ccccc12)C(=O)N[C@@H](CC(C)C)C(=O)N[C@@H](CC(C)C)C(=O)N[C@@H](C)C(=O)N[C@H](C(=O)NCC(=O)N1CCC[C@H]1C(=O)N[C@@H](CCC(=O)O)C(=O)N[C@@H](CO)C(=O)NCC(=O)N[C@@H](C)C(=O)N1CCC[C@H]1C(=O)N1CCC[C@H]1C(=O)N1CCC[C@H]1C(=O)N[C@@H](CO)C(=O)O)[C@@H](C)O)[C@@H](C)CC) [SEQ ID NO: 20] | 3.8 pM | 38900 pM |
| [Ala(4-thiazolyl)]SQGTFTSD[1Nal]SKQ[Nle]ESRRAQDFIEWLLATGPESGAPPPS-OH (N-terminus assumed; SMILES CCCC[C@H](NC(=O)[C@H](CCC(N)=O)NC(=O)[C@H](CCCCN)NC(=O)[C@H](CO)NC(=O)[C@H](Cc1cccc2ccccc12)NC(=O)[C@H](CC(=O)O)NC(=O)[C@H](CO)NC(=O)[C@@H](NC(=O)[C@H](Cc1ccccc1)NC(=O)[C@@H](NC(=O)CNC(=O)[C@H](CCC(N)=O)NC(=O)[C@H](CO)NC(=O)[C@@H](N)Cc1cscn1)[C@@H](C)O)[C@@H](C)O)C(=O)N[C@@H](CCC(=O)O)C(=O)N[C@@H](CO)C(=O)N[C@@H](CCCNC(=N)N)C(=O)N[C@@H](CCCNC(=N)N)C(=O)N[C@@H](C)C(=O)N[C@@H](CCC(N)=O)C(=O)N[C@@H](CC(=O)O)C(=O)N[C@@H](Cc1ccccc1)C(=O)N[C@H](C(=O)N[C@@H](CCC(=O)O)C(=O)N[C@@H](Cc1c[nH]c2ccccc12)C(=O)N[C@@H](CC(C)C)C(=O)N[C@@H](CC(C)C)C(=O)N[C@@H](C)C(=O)N[C@H](C(=O)NCC(=O)N1CCC[C@H]1C(=O)N[C@@H](CCC(=O)O)C(=O)N[C@@H](CO)C(=O)NCC(=O)N[C@@H](C)C(=O)N1CCC[C@H]1C(=O)N1CCC[C@H]1C(=O)N1CCC[C@H]1C(=O)N[C@@H](CO)C(=O)O)[C@@H](C)O)[C@@H](C)CC) [SEQ ID NO: 19] | 0.7 pM | 6640 pM |
